Experimental findings from patent publication US20210340225A1 are described below.

The EC50 (read off the curve) is the concentration that produces a half-maximal response.

The assay has as its target recombinantly expressed RBD ([change] domain) of bat sarbecovirus WIV16 (bat SARS-like coronavirus WIV16).

“47D11 fully human IgG1 monoclonal antibody”: the EC50 (read off the curve) was found to be 0.09 µg/mL.
